Experimental data taken from patent US11053304 (CENTIVAX, dated 2021).
Where two headings read alike, the source gives them in different places.

B1: COVID19_P19_B08 (scFv, V domains shown)
VH: EVQLVESGGGLVQPGGSLRLSCAASGFTFSDHYMDWVRQAPGKGLEWVAAIGASGESTYYADSVKGRFTISRDNSKNTLYLQMNSLRAEDTAVYYCVTQRDNSRDYFPLWFHDMDVWGQGTLVTVSS
VL: DIVMTQSPLSLPVTPGEPASISCRSSQSLLYSDGDTYLDWYLQKPGQSPQLLIYLGSIRAPGVPDRFSGSGSGTDFTLKISRVEAEDVGVYYCMQSIQTPWTFGGGTKVEIKR
B2: COVID19_P07_F02 (scFv, V domains shown)
VH: EVQLVESGGGLVQPGGSLRLSCAASGFAFSNYGMHWIRQAPGKGLEWVSGIDGSGGTAHYADSVKGRFTISRDNSKNTLYLQMNSLRAEDTAVYYCVTNMDNSRDYFPHYFHDMDVWGQGTLVTVSS
VL: not shown
B3: COVID19_P20_B06 (scFv, V domains shown)
VH: EVQLVESGGGLVQPGGSLRLSCAASGFTFHDYAMHWVRQAPGKGLEWVAVTSYDGNTKYYADSVKGRFTISRDNSKNTLYLQMNSLRAEDTAVYYCVTNLDNSRDYFPHYFHDMDVWGQGTLVTVSS
VL: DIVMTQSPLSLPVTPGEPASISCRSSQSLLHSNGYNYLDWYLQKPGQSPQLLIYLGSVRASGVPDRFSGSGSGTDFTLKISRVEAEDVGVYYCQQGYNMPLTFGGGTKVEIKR
B4: COVID19_P08_B12 (scFv, V domains shown)
VH: EVQLVESGGGLVQPGGSLRLSCAASGFSFRSYGMHWVRQAPGKGLEWVAVISSDGRNKFYADSVKGRFTISRDNSKNTLYLQMNSLRAEDTAVYYCVTNFDNSRDYFPHYFHDMDVWGQGTLVTVSS
VL: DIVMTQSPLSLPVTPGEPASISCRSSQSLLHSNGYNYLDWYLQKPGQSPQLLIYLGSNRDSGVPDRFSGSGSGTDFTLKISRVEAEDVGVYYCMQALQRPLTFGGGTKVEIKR
B5: COVID19_P19_C07 (scFv, V domains shown)
VH: EVQLVESGGGLVQPGGSLRLSCAASGFPFSLYGMHWVRQAPGKGLEWVAVITSDGRSKFYADSVKGRFTISRDNSKNTLYLQMNSLRAEDTAVYYCVTNLDNSRDYFPHYFHDMDVWGQGTLVTVSS
VL: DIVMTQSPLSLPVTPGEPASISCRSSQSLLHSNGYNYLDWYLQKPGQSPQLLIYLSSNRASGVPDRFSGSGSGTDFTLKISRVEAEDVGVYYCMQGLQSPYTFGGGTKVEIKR
B6: COVID19_P08_C08 (scFv, V domains shown)
VH: EVQLVESGGGLVQPGGSLRLSCAASGFTFRNYAMHWVRQAPGKGLEWVSAVSSSGGSPYYADSVKGRFTISRDNSKNTLYLQMNSLRAEDTAVYYCVTNMDNSRDYFPHYFHDMDVWGQGTLVTVSS
VL: DIVMTQSPLSLPVTPGEPASISCRSSQSLVHSDGDNYLNWYLQKPGQSPQLLIYSGSYRASGVPDRFSGSGSGTDFTLKISRVEAEDVGVYYCMQGTHWPLTFGGGTKVEIKR
B7: COVID19_P07_H01 (scFv, V domains shown)
VH: EVQLVESGGGLVQPGGSLRLSCAASGFTFRSYAMHWVRQAPGKGLEWVAVISSDGRNKFYADSVKGRFTISRDNSKNTLYLQMNSLRAEDTAVYYCVTNMDNSRDYFPHYFHDMDVWGQGTLVTVSS
VL: DIVMTQSPLSLPVTPGEPASISCRSSQSLLHSNGNNYMDWYLQKPGQSPQLLIYLASQRASGVPDRFSGSGSGTDFTLKISRVEAEDVGVYYCMQALQRPLTFGGGTKVEIKR
B8: COVID19_P07_D09 (scFv, V domains shown)
VH: EVQLVESGGGLVQPGGSLRLSCAASGFSFSRYGMHWVRQAPGKGLEWVSGISADGGTAYYADSVKGRFTISRDNSKNTLYLQMNSLRAEDTAVYYCVTNMDNSRDYFPHYFHDMDVWGQGTLVTVSS
VL: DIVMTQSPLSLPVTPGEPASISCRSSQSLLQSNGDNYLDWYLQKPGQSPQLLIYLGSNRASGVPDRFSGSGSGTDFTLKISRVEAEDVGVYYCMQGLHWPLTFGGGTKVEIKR
B9: COVID19_P08_C12 (scFv, V domains shown)
VH: EVQLVESGGGLVQPGGSLRLSCAASGFTFNNYALHWVRQAPGKGLEWVSGVSWNGSRTHYADSVKGRFTISRDNSKNTLYLQMNSLRAEDTAVYYCVTNLDNSRDYFPHYFHDMDVWGQGTLVTVSS
VL: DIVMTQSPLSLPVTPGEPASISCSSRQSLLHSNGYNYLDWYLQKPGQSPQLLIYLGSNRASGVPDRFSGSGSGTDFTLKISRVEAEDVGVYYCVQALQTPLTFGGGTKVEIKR
B10: COVID19_P19_H07 (scFv, V domains shown)
VH: EVQLVESGGGLVQPGGSLRLSCAASGFTFGTSAVSWVRQAPGKGLEWVSAISGSGGSTYYADSVKGRFTISRDNSKNTLYLQMNSLRAEDTAVYYCVTQRDNSRDYFPHYFHDMDVWGQGTLVTVSS
VL: DIVMTQSPLSLPVTPGEPASISCRSSQSLLYSDGDTYLDWYLQKPGQSPQLLIYLGSIRAPGVPDRFSGSGSGTDFTLKISRVEAEDVGVYYCMQGLETPWTFGGGTKVEIKR
B11: COVID19_P07_G02 (scFv, V domains shown)
VH: EVQLVESGGGLVQPGGSLRLSCAASGFRFNTYAMHWVRQAPGKGLEWVAVISSSGRNKFYADSVKGRFTISRDNSKNTLYLQMNSLRAEDTAVYYCVTNMDNSRDYFPHYFHDMDVWGQGTLVTVSS
VL: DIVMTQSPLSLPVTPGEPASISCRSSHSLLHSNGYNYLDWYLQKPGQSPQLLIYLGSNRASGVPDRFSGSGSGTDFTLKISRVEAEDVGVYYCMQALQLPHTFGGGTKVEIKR
B12: COVID19_P08_F04 (scFv, V domains shown)
VH: EVQLVESGGGLVQPGGSLRLSCAASGFRFDDFGMHWYRQAPGKGLEWVSATSGGGSITYYADSVKGRFTISRDNSKNTLYLQMNSLRAEDTAVYYCVTNMDNSRDYFPHYFHDMDVWGQGTLVTVSS
VL: not shown

Legend:
Assay in all cases: SPR, scFv captured via anti-V5, RBD as analyte
[1] = target: T1, SARS-CoV-2 Receptor Binding Domain (RBD) protein (SARS-CoV-2, UniProt P0DTC2 319-541)
[2] = target: SARS-CoV-1 Receptor Binding Domain (RBD) protein (SARS-CoV-1, UniProt P59594 306-527)
[3] = target: MERS Receptor Binding Domain (RBD) protein (MERS coronavirus, UniProt K9N5Q8 367-606)
[4] = target: T1, SARS-CoV-2 Receptor Binding Domain …; remark: listed apart in the source

Binder | Kd [1] | binding result [2] | binding result [3] | Kd [4] | koff [4] | kon [4]
B1 | < 50 nM | no binding (tested: up to 300 nM) | no binding (tested: up to 300 nM) | 32.7 nM | 0.00685 s⁻¹ | 209000 M⁻¹ s⁻¹
B2 | < 50 nM | no binding (tested: up to 300 nM) | no binding (tested: up to 300 nM) | 10.1 nM | 0.00018 s⁻¹ | 17800 M⁻¹ s⁻¹
B3 | < 50 nM | no binding (tested: up to 300 nM) | no binding (tested: up to 300 nM) | 5.1 nM | 0.000439 s⁻¹ | 86000 M⁻¹ s⁻¹
B4 | < 50 nM | no binding (tested: up to 300 nM) | no binding (tested: up to 300 nM) | 3.5 nM | 5.7e-05 s⁻¹ | 16000 M⁻¹ s⁻¹
B5 | < 50 nM | no binding (tested: up to 300 nM) | no binding (tested: up to 300 nM) | 3.6 nM | 5.7e-05 s⁻¹ | 16000 M⁻¹ s⁻¹
B6 | < 50 nM | no binding (tested: up to 300 nM) | no binding (tested: up to 300 nM) | 1.8 nM | 5.7e-05 s⁻¹ | 32000 M⁻¹ s⁻¹
B7 | < 50 nM | no binding (tested: up to 300 nM) | no binding (tested: up to 300 nM) | 2.9 nM | 5.7e-05 s⁻¹ | 19900 M⁻¹ s⁻¹
B8 | < 50 nM | no binding (tested: up to 300 nM) | no binding (tested: up to 300 nM) | 1.8 nM | 5.7e-05 s⁻¹ | 32500 M⁻¹ s⁻¹
B9 | < 50 nM | no binding (tested: up to 300 nM) | no binding (tested: up to 300 nM) | 1.1 nM | 5.7e-05 s⁻¹ | 53000 M⁻¹ s⁻¹
B10 | < 50 nM | no binding (tested: up to 300 nM) | no binding (tested: up to 300 nM) | 37 nM | 0.00786 s⁻¹ | 212000 M⁻¹ s⁻¹
B11 | < 50 nM | no binding (tested: up to 300 nM) | no binding (tested: up to 300 nM) | 4.8 nM | 5.7e-05 s⁻¹ | 11900 M⁻¹ s⁻¹
B12 | < 50 nM | no binding (tested: up to 300 nM) | no binding (tested: up to 300 nM) | 2.04 nM | 0.00019 s⁻¹ | 93000 M⁻¹ s⁻¹
